Measured values: publication PMC6529005, “FMRP - G-quadruplex mRNA - miR-125a interactions: Implications for miR-125a mediated translation regulation of PSD-95 mRNA”

Columns and labels:
FMRP RGG peptide [1] = target: FMRP RGG peptide (UniProt Q06787); assay: EMSA; 5 mM KCl; Fluorescence: 10 mM cacodylic acid pH 6.5, 150 mM KCl, 1 uM BSA, 200 nM RNA; EMSA: 0.5x TBE native gels at 4 C (5 mM KCl for PSD-95 RNAs), incubation at room temperature 15-20 min; pull-down: RIPA (150 mM NaCl, 50 mM Tris pH 8.0), room temperature
FMRP S500D [2] = target: T1, FMRP S500D (UniProt Q06787 1-632, S500D); assay: fluorescence titration (2AP); 150 mM KCl, 1 uM BSA; Fluorescence: 10 mM cacodylic acid pH 6.5, 150 mM KCl, 1 uM BSA, 200 nM RNA; EMSA: 0.5x TBE native gels at 4 C (5 mM KCl for PSD-95 RNAs), incubation at room te
FMRP S500D [3] = target: T1, FMRP S500D; assay: EMSA; 200 nM RNA, up to 1:2; Fluorescence: 10 mM cacodylic acid pH 6.5, 150 mM KCl, 1 uM BSA, 200 nM RNA; EMSA: 0.5x TBE native gels at 4 C (5 mM KCl for PSD-95 RNAs), incubation at room te
FMRP S500D [4] = target: T1, FMRP S500D; assay: EMSA; 200 nM RNA, similar to miR-125a; Fluorescence: 10 mM cacodylic acid pH 6.5, 150 mM KCl, 1 uM BSA, 200 nM RNA; EMSA: 0.5x TBE native gels at 4 C (5 mM KCl for PSD-95 RNAs), incubation at room te
FMRP S500D [5] = target: T1, FMRP S500D; assay: EMSA; 200 nM RNA, complete at 1:2; Kd estimated low nM; Fluorescence: 10 mM cacodylic acid pH 6.5, 150 mM KCl, 1 uM BSA, 200 nM RNA; EMSA: 0.5x TBE native gels at 4 C (5 mM KCl for PSD-95 RNAs), incubation at room te
FMRP RGG peptide [6] = target: FMRP RGG peptide (UniProt Q06787); assay: EMSA; 200 nM RNA, up to 1:2; Fluorescence: 10 mM cacodylic acid pH 6.5, 150 mM KCl, 1 uM BSA, 200 nM RNA; EMSA: 0.5x TBE native gels at 4 C (5 mM KCl for PSD-95 RNAs), incubation at room temperature 15-20 min; pull-down: RIPA (150 mM NaCl, 50 mM Tris pH 8.0), room temperature

GGGAGGGAGGGUGGG (structured_RNA) [PSD-95 Q2]
binding result (FMRP RGG peptide [1]; G-quadruplex): binds

GGGAGGGAGGGUGGG (structured_RNA, A4 replaced by 2-aminopurine) [PSD-95 Q2 4-2AP]
Kd (FMRP S500D [2]): 100 nM

UAGGUAGUUUCAUGUUGUUGGG (ssRNA) [miR-196a-1]
binding result (FMRP S500D [3]): binds

UCCCUGAGACCCUAACUUGUGA (ssRNA) [miR-125b]
binding result (FMRP S500D [4]): binds

B1: PSD-95 Q1-Q2 (structured_RNA)
RNA: GGGAAAAGGGAGGGAUGGGUCUAGGGAGUGGGAAAUGCGGGAGGGAGGGUGGG
binding result (FMRP RGG peptide [1]; two G-quadruplexes): binds

UCCCUGAGACCCUUUAACCUGUGA (ssRNA) [miR-125a]
binding result (FMRP S500D [5]): binds | binding result (FMRP RGG peptide [6]): no binding

UCCCUGAGACCGUUUAACCUGUGA (ssRNA) [miR-125a-Mut2]
binding result (FMRP S500D [4]): binds

UGGAGUGUGACAAUGGUGUUUG (ssRNA) [miR-122]
binding result (FMRP S500D [3]): no binding

GGGAAAAGGGAGGGAUGGG (structured_RNA, A11 replaced by 2-aminopurine) [PSD-95 Q11234 11-2AP]
Kd (FMRP S500D [2]): 66 nM

GGGAAAAGGGAGGGAUGGGUCUAGGG (structured_RNA) [PSD-95 Q1]
binding result (FMRP RGG peptide [1]; G-quadruplex, multiple conformations): binds
